The text below walks through data of PMC8095197 (bioRxiv, 2021).

The test addresses SARS-CoV-2 spike (SARS-CoV-2, reference (Wuhan-Hu-1) …, UniProt P0DTC2). Kind of test: ELISA. For orientation: In an ELISA, binding on a coated surface is turned into a signal by an enzyme label.

B1: DH1047 IgG (antibody, V domains shown)
VH: QVQLVQSGAEVKKPGASVQVSCQASANTFTNHYIHWVRQAPGQGLEWMGIIYPTGGNTIYAQGFQGRVTMTRDTSLNTIYLELSSLRSEDTAVYYCARDVRVDDSWSGYDLLSGGTYFDYWGQGTLVTVSS
VL: not shown
Turning to B1, the binding result is on record as “binds”.
